From patent US5494895A, “Scorpion peptide margatoxin with immunosuppressant activity” (Merck & Co., Inc., priority 1993, dated 1996)
Ends that are not written are not given here.

What was measured:
[1] = target: T1, Kv 1.6 (Rattus norvegicus, UniProt P17659); details: rat clone; cited from earlier work
T1 construct: expressed in transfected cells; host or cells: Xenopus oocytes injected with RNA transcribed in vitro from the cDNA clone

[2] = target: T2, Maxi-K channel (Bos taurus, UniProt Q28204); assay: [125I]ChTX binding to bovine aortic smooth muscle sarcolemmal membranes
T2 construct: from tissue; host or cells: bovine aortic smooth muscle sarcolemmal membranes
T2 sequence (Q28204 whole entry): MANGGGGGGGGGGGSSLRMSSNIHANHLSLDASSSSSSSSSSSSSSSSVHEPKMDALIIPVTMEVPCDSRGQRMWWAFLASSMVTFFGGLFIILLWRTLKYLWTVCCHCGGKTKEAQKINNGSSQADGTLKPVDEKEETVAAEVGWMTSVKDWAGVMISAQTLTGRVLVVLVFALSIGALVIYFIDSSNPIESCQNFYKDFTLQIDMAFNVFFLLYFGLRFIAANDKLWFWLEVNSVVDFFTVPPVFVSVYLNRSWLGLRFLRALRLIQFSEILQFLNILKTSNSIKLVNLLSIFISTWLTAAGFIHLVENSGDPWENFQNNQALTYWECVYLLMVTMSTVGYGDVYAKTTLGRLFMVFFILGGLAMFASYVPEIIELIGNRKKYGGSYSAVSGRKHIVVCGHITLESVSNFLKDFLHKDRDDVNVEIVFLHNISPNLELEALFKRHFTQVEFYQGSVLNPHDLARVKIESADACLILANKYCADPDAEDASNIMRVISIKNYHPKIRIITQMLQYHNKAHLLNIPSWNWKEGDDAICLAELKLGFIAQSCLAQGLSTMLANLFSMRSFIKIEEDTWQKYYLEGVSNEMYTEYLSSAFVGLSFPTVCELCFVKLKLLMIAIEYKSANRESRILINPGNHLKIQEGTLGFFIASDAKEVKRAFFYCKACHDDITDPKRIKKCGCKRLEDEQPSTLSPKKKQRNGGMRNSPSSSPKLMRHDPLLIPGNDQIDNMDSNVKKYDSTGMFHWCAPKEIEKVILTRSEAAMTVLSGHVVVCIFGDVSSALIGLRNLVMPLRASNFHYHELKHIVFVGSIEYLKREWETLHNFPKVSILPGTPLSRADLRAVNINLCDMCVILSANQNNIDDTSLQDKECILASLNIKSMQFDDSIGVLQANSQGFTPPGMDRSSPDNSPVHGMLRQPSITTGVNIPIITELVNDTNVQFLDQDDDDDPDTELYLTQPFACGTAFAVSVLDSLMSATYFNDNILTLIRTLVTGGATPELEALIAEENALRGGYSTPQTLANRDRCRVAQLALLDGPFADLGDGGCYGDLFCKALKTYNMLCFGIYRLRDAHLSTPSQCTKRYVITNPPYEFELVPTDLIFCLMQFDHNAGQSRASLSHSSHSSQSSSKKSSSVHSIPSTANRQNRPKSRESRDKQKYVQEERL
T2 sequence (Q28067 whole entry partner): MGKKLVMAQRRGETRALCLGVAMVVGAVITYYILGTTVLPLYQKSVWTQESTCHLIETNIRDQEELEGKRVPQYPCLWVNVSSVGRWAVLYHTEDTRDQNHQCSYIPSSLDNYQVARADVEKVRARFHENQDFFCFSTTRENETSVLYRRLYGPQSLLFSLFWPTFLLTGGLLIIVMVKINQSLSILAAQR
Description: (§1) The potency of MgTX as an inhibitor of [^125 I]ChTX binding to Kv 1.3 was evaluated. The binding of [^125 I]ChTX to either rat brain synaptic plasma membrane vesicles (Kv 1.3 channel; Vazquez et al., J. Biol. Chem. 265, 15564, 1990) or bovine aortic smooth muscle sarcolemmal membranes (Maxi-K channel; Vazquez et al., J. Biol. Chem. 264, 20402, 1989) was determined as described. Briefly, membrane vesicles were incubated with [^125 I]ChTX in the presence or absence of other added agents, until equilibrium was achieved. Separation of bound from free ligand was accomplished by filtration through GF/C glass fiber filters (WHATMAN) that had been presoaked in 0.5% polyethyleneimine. Nonspecific binding was determined in the presence of 10 nM unlabeled ChTX. Data from saturation experiments were analyzed in a Scatchard representation to determine Kd and Bmax values. Triplicate samples were obtained for each experimental point and the data were averaged. The standard deviation of the mean was typically less than 2%. […] As an indication of selectivity, MgTX had no effect on [^125 I]ChTX binding to the Maxi-K channel in smooth muscle membranes at concentrations up to 10 nM.

[3] = target: T3, lymphocyte Kv 1.3 current (Homo sapiens, UniProt P22001); assay: Whole cell patch clamp of human peripheral T-lymphocytes; format: cell-based; details: electrophysiology, Example 8
T3 construct: endogenous in cells; host or cells: purified human peripheral blood T lymphocytes
T3 sequence (P22001 whole entry): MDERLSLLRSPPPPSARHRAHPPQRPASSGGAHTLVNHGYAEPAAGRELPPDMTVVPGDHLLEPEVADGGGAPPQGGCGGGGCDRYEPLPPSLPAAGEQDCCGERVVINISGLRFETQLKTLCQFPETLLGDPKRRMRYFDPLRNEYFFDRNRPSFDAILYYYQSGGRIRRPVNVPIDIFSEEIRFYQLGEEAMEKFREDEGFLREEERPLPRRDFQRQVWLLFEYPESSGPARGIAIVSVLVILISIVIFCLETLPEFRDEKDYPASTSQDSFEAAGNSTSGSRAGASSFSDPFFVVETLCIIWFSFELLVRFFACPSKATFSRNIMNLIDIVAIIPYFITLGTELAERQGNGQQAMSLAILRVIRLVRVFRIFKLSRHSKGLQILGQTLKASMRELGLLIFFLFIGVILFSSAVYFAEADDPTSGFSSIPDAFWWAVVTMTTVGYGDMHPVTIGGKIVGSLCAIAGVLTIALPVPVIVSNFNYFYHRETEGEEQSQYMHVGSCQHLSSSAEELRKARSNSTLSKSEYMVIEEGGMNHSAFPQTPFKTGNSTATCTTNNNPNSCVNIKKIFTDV
Description: Ionic currents were recorded from human peripheral T-lymphocytes using the whole cell patch clamp technique described in Cahalan, M. and Neher, E., Meth. Enzymol. 207, 3, 1992. Purified human T cells were obtained as described in Leonard et al., Proc. Natl. Acad. Sci. U.S.A., 89, 10094, 1992, and recordings were carried out in a bath solution consisting of ^125 mM NaCl, 2.5 mM KCl, 1.0 mM CaCl2, 2.0 mM MgCl2, 10 mM HEPES (potassium salt), 10 mM glucose, 5 mM Na-pyruvate, and 0.05% BSA. The pH was adjusted to 7.2, and experiments were performed at room temperature (19°-22° C.). The intracellular (pipette) solution contained 140 mM K-glutamate, 1 mM MgCl2, 10 mM HEPES (potassium salt), and 0.1 mM EGTA. The pH was adjusted to 7.2. Patch pipettes were fabricated from DAGAN (Minneapolis, Minn.) LG-16 glass and had resistances of 2 to 8M.OMEGA.. Currents were measured using a DAGAN model 3900 patch clamp. Delivery of command voltages, data acquisition, and post-acquisition analysis were aided by a microcomputer running the Pclamp program suite (AXON INSTRUMENTS, Foster City, Calif.).
Methods for oocyte isolation and micro-injection were previously described in Goldin, Meth. Cell Biol, 36, 487, 1991, and Swanson and Folander, Meth. Enzymol., 207, 310, 1992. Currents expressed in oocytes were measured using a DAGAN model CA-1 two-electrode voltage clamp. Delivery of command voltages, data acquisition and post-acquisition analysis were aided by a microcomputer running the Pclamp program suite. The oocyte bathing solution consisted of 96 mM NaCl, 2.5 mM KCl, 1 mM MgCl2, 1.8 mM CaCl2, 10 mM HEPES, and 0.05% BSA. The pH was 7.2. All recordings were obtained at room temperature (19°-22° C.). The intracellular microelectrodes were fabricated from DAGAN LE-16 glass in a two-stage pull to a final resistance of 0.6 to 2M.OMEGA. and filled with 3M KCl. For both lymphocyte and oocyte experiments, peptides were diluted into the extracellular solution from 20 μM aqueous stock containing 100 mM NaCl. The presence of 0.05% BSA in the bath solution inhibited non-specific loss of dilute peptide toxins in the perfusion tubing.
Both native and recombinant MgTX were tested for their ability to block voltage gated K^+ channels. […] There was insufficient native toxin to carry out selectivity studies, so those were conducted using the recombinant material exclusively. […] The apparent IC50 for inhibition of the lymphocyte Kv 1.3 current is between 20 to 100 pM. […] As reported previously, MgTX has no effect on three different ChTX-sensitive, Ca^2+ -activated K^+ channels of lymphocytes, even at 100 nM (Leonard et al., Proc. Natl. Acad. Sci. U.S.A. 89, 10094, 1992).

[4] = target: T4, Kv 1.3 (Rattus norvegicus, UniProt P15384); assay: [125I]ChTX binding to rat brain synaptic plasma membrane vesicles
T4 construct: from tissue; host or cells: rat brain synaptic plasma membrane vesicles
T4 sequence (P15384 whole entry): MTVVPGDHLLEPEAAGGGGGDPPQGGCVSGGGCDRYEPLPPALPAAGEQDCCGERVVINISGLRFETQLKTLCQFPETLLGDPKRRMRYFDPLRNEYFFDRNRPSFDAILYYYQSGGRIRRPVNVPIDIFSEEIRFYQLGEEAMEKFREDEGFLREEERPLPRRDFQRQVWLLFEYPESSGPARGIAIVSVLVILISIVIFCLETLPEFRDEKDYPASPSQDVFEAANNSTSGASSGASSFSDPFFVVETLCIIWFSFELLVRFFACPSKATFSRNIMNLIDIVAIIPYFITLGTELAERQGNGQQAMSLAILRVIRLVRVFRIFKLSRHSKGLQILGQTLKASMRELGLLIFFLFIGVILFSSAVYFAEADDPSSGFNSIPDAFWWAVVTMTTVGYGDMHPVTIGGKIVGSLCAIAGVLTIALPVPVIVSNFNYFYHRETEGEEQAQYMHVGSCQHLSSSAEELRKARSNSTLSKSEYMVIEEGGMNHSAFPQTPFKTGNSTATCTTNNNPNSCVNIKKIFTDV
Description: as §1

T1 sequence (P17659 whole entry): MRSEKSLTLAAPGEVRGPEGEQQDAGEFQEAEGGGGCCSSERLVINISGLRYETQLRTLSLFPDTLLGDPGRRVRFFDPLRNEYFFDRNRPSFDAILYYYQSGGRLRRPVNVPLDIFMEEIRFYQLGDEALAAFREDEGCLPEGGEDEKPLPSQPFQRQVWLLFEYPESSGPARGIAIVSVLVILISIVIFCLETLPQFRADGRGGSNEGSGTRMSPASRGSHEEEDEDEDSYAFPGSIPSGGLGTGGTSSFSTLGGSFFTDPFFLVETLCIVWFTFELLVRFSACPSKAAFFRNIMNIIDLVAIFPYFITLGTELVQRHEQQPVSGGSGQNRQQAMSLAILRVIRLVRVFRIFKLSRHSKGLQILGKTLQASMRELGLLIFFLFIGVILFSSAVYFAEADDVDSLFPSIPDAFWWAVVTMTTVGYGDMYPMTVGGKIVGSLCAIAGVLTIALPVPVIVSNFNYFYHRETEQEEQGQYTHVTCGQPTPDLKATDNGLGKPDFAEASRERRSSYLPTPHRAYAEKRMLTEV

Row | Substance | IC50 [1] [nM] | effect on ChTX binding to the Maxi-K channel [2] | potency and selectivity as an inhibitor of Kv 1.3 compared with native peptide [3] | potency and selectivity as an inhibitor of Kv 1.3 compared with native peptide ([3]; listed as recombinant MgTX) | potency for inhibition of [125I]ChTX binding to brain membranes compared with native MgTX [4]
1 | charybdotoxin [ChTX] | > 1000 | – | – | – | –
2 | rMgTX: recombinant MgTX expressed in E. coli as T7 gene 9 fusion protein, cleaved with factor Xa; identical to native peptide (TIINVKCTSPKQCLPPCKAQFGQSAGAKCMNGKCKCYPH; ends and bridges not checked; cysteine pairing not given here; UniProt P40755 1-39, looked up) | – | did not affect | same potency and selectivity | identical results | same potency as native MgTX
